Molecular target: HSP90β (human) (UniProt P08238)
Experiment: cryo-EM structure; HSP90–CDC37–BRAF^V600E complex incubated with PP5 D274N, purified by SEC, cross-linked with 1 mM BS3; one sample gave three classes: HCK (3.4 Å), HCK-P open (4.2 Å), HCK-P closed (3.9 Å); PP5 modelled by rigid-body docking

stoichiometry N: 2
Substance: HSP90β, P08238 1-724 (natural protein; phosphorylation at Ser226 and Ser255 found by mass spectrometry; phosphorylation at Ser226 and Ser255 found by mass spectrometry; other documents disagree on this pair)
